Data: US20190276502A1 (OXFORD UNIVERSITY INNOVATION, published 2019)

T1: Recombinant Eap protein (C-terminal MAP domain and adjacent basic region of S. aureus Eap), His tag excised (Staphylococcus aureus Newman, UniProt A6QIG2 481-584)
T1 construct: The tag was removed with HRV 3C protease before coating on the plate; also called immobilized Eap; untagged Eap
T1 sequence: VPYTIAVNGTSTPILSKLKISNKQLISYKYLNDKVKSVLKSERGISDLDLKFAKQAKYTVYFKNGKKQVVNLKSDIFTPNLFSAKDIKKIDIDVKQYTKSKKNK

T2: Recombinant EapH2 protein (MAP domain of S. aureus EapH2), His tag excised (Staphylococcus aureus Newman, UniProt A0A0H3K729 24-144)
T2 construct: The N-terminal His-tag was removed with HRV 3C protease; also called immobilized EapH2; untagged EapH2
T2 sequence: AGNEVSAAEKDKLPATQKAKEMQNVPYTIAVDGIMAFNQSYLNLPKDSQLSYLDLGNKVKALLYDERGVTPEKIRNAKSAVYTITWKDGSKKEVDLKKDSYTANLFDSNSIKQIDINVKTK

T3: Recombinant His-tagged EapH2 protein (MAP domain of S. aureus EapH2) (Staphylococcus aureus Newman, UniProt A0A0H3K729 24-144)
T3 construct: Made in E. coli and used as the soluble His-tagged ligand; not shown: N-terminal His-tag and 3C protease site from vector pOPIN-F
T3 sequence: T2 sequence

B1: Recombinant His-tagged Eap protein (C-terminal MAP domain and adjacent basic region of S. aureus Eap) (other)
chain: T1 sequence
notes: not shown: N-terminal His-tag and 3C protease site from vector pOPIN-F
B2: Recombinant EapH1 protein (MAP domain of S. aureus EapH1), His tag excised (other)
chain: PSHEASADSNNGYKEMTVDGYHTVPYTISVDGITALHRTYFIFPENKNVLYQEIDSKVKNELASQRGVTTEKINNAQTATYTLTLNDGNKKVVNLKKNDDAKNSIDPSTIKQIQIVVK
notes: The N-terminal His-tag was removed with HRV 3C protease; also called immobilized EapH1; untagged EapH1

Tests used:
[1] = molecular target: T1, Recombinant Eap protein (C-terminal MAP …); assay: plate interaction assay (EIA): untagged protein immobilised, His-tagged ligand titrated, anti-His alkaline phosphatase detection, Kd by non-linear regression
[2] = molecular target: T2, Recombinant EapH2 protein (MAP domain …); assay: as above
[3] = molecular target: T3, Recombinant His-tagged EapH2 protein …; assay: plate interaction assay (EIA): untagged protein immobilised, His-tagged ligand titrated, anti-His alkaline phosphatase detection

Row | Binder | Kd [1] [nM] | Kd [2] [nM] | binding result [3]
1 | B1 | 80 | 82 | 
2 | B2 |  |  | binds
